Where a chain is given by its changes, count along the chain named. Where “and” joins values, the source holds several entries; their conditions need not be identical. Identical values can stand only once.
B1: antibody 416 (antibody, V domains shown)
VH: EVQLVESGGGLVQPGRSLRLSCAASGFTFDDYAMHWVRQAPGKGLEWVSGISWNSGSIGYADSVKGRFTISRDNAKNSLYLQMNSLRAEDTALYYCAKDLAWLSGGMDVWGQGTTVTVSS
VL: not shown
B2: antibody 337 (antibody, V domains shown)
VH: QVQLVESGGGVVQPGRSLRLSCAASGFTFSSYGMHWVRQAPGKGLEWVAIIWYDGSNKYYADSVKGRFTISRDNSKNTLYLQMNSLRAEDTAVYYCAKDTGGYCSGGSCYPESYFDYWGQGTLVTVSS
VL: SYVLTQPPSVSVAPGKTARITCGGNNIGSKSVHWYQQKPGQAPVLVIYYDSDRPSGIPERFSGSNSGNTATLTINRVEAGDEADYYCQVWDGSSDHLYVFGTGTKVTVL
B3: antibody 452 (antibody, V domains shown)
VH: QVQLVESGGGLVKPGGSLRLSCAASGFTFSDYYLSWIRQAPGKGLEWVSYISSSGSNIYYADSVKGRFTISRDNAKNSLYLQMNSLRADDTAVFYCARAGRYCSGGSCRVEYFQHWGQGTLVTVSS
VL: SYELTQPPSVSVSPGQTARITCSGDALPKQYAYWYQQKPGQAPVLVIYKDNERPSGIPERFSGSSSGTTATLTISGVQAEDEADYYCQSADSSGTVVFGGGTKLTVL
B4: antibody 315 (antibody, V domains shown)
VH: QVQLVQSGSELKKPGASVKLSCQASGYSFTNHAMNWVRQAPGQGLEWMGWINTNTGNPTYAQGFTGRFVFSLDTSVSTTYLHISSLKAEDTAVYYCARASARPGVATNLDFWGQGTLVVVSS
VL: DIQMTQSPSSLSASVGDRVTITCRASQNIDNYLNWYQQKPGKAPKLLIYAASRLHSGVPSRFSGSGSGTDFTLIISSLQPEDLATYYCQQSYSNPLTFGPGTKVDIR
B5: antibody 390 (antibody, V domains shown)
VH: EVQLVESGGGLIQPGGSLRLSCAASGFTVSSNYMSWVRQAPGKGLEWVSIIYSGGSTYYADSVKGRFTISRDNSKNTLYLQMNSLRAEDSAVYSCATTMVRGLIISYYYGMDVWGQGTTVTVSS
VL: QSALTQPASVSGSPGQSITISCTGTSSDVGGYNYVSWYQQHPGKAPKLMIYEVSNRPSGVSNRFSGSKSGNTASLTISGLQAEDEADYYCSSYTSSSTLVFGGGTKLTVL
B6: antibody 413 (antibody, V domains shown)
VH: EVQLVESGGGLIQPGGSLRLSCAASGFTVSGNYMNWVRQAPGKGLEWVSVIYSGGSTYYADSVKGRFTISRANSKNTLYLQMNSLRAEDTAVYYCASTSLVRGLIILYYYGMDVWGQGTTVTVSS
VL: B5 VL
B7: antibody 392 (antibody, V domains shown)
VH: QVQLQESGPGLVKPSGTLSLTCAVSGGSISSSNWWSWVRQPPGKGLEWIGEIYHSGSTNYNPSLKSRVTISVDKSKNQFSLKLSSVTAADTAVYYCARGWRATLYGMDVWGQGTTVTVSS
VL: B5 VL with G31S, Y34L, N55K, S91C, T94A, S95G, L99W
B8: antibody 396 (antibody, V domains shown)
VH: QVQLQQWGAGLLKPSETLSLTCAVYGGSFSGYYWSWIRQPPGKGLEWIGEIIHSGSTNYNPSLKSRVTISVDTSKNQFSLKLSSVTAADTAVYYSARRTGLLWFREGSYYFDYWGQGTLVTVSS
VL: DIQMTQSPSSLSASVGDRVTITCRASQGIRNDLGWYQQKPGKAPKRLIYAASSLQSGVPSRFSGSGSGTEFTLTISSLQPEDFATYYCLQHNSYPLTFGGGTKVEIK

Biological target: SARS-CoV-2 full length Spike protein, wild type (SARS-CoV-2), P0DTC2
Conditions: remark: other sources report otherwise

| Binder | median fluorescence fold over isotype (fold over isotype control) | fold over isotype control (median fluorescence) (fold over isotype) | also measured |
| --- | --- | --- | --- |
| B1 | 110 | – | – |
| B2 | – | – | bead binding signal (fold over isotype) (fold over isotype): 756 |
| B3 | 854 | – | – |
| B4 | – | – | bead binding signal (fold over isotype) (fold over isotype): 592 |
| B5 | – | 637 and 341 and 318 | – |
| B6 | 969 and 367 and 416 | – | – |
| B7 | – | 509 | – |
| B8 | – | 553 | – |

Source: patent US20220356229A1
